Where no end group is shown, it is not given here. The star is where a group is joined. TAMRA = 5-carboxytetramethylrhodamine, CN(C)c1ccc2c(-c3ccc(C(=O)*)cc3C(=O)[O-])c3ccc(=[N+](C)C)cc-3oc2c1
T1: A1 protein (mouse, residues 1-152, P104K C113S, used as wild type) (mouse)
T1 sequence (Q07440 1-152 with P104K C113S, looked up): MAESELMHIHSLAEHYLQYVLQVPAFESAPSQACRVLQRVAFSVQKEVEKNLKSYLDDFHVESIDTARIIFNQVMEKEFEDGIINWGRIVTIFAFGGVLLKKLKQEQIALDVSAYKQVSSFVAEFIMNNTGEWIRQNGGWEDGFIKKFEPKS

T2: MCL-1 (mouse, residues 152-308) (mouse)
T2 construct: remnant of thrombin cleavage at the N-terminus of MCL-1; MCL-1, mouse, residues 152-308, UniProt P97287; source: E. coli C41 pLysS, purified (Ni2+ agarose, thrombin cleavage, ion exchange, Superdex G75 gel filtration); not shown: His6, N-terminal, cleaved
T2 chain: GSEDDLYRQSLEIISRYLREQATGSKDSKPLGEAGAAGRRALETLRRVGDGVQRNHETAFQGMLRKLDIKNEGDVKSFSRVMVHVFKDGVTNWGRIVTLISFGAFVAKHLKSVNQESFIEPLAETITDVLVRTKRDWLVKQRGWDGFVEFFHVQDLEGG

B1: PUMA L141A peptide (on the M144A wild type), TAMRA-labelled (peptide)
chain: {TAMRA}-RVEEEEWAREIGAQARRAADDLNAQYERRRQEEQH
B2: BID E81A peptide, TAMRA-labelled (peptide, UniProt P70444 76-110, looked up)
chain: {TAMRA}-SESQEAIIHNIARHLAQIGDEMDHNIQPTLVRQLA
notes: BID, mouse, residues 76-110, UniProt P70444; source: synthetic peptide (Biomatik)
B3: BID E81G peptide, TAMRA-labelled (peptide, UniProt P70444 76-110, looked up)
chain: {TAMRA}-SESQEGIIHNIARHLAQIGDEMDHNIQPTLVRQLA
notes: as for B2
B4: BID I83A peptide, TAMRA-labelled (peptide, UniProt P70444 76-110, looked up)
chain: {TAMRA}-SESQEEIAHNIARHLAQIGDEMDHNIQPTLVRQLA
notes: as for B2
B5: BID I101A peptide, TAMRA-labelled (peptide, UniProt P70444 76-110, looked up)
chain: {TAMRA}-SESQEEIIHNIARHLAQIGDEMDHNAQPTLVRQLA
notes: as for B2
B6: BID L90A peptide, TAMRA-labelled (peptide, UniProt P70444 76-110, looked up)
chain: {TAMRA}-SESQEEIIHNIARHAAQIGDEMDHNIQPTLVRQLA
notes: as for B2
B7: PUMA L148A peptide (on the M144A wild type), TAMRA-labelled (peptide)
chain: {TAMRA}-RVEEEEWAREIGAQLRRAADDANAQYERRRQEEQH
B8: PUMA (A139G A150G) peptide (on the M144A wild type), TAMRA-labelled (peptide, UniProt Q99ML1 127-161, looked up)
chain: {TAMRA}-RVEEEEWAREIGGQLRRAADDLNGQYERRRQEEQH
notes: PUMA, mouse, residues 127-161, UniProt Q99ML1; Double mutant; also called A150G (A139G); source: synthetic peptide (Biomatik)
B9: BID peptide (mouse, residues 76-110), N-terminal TAMRA (peptide, UniProt P70444 76-110, looked up)
peptide: {TAMRA}-SESQEEIIHNIARHLAQIGDEMDHNIQPTLVRQLA
notes: BID, mouse, residues 76-110, UniProt P70444; source: synthetic peptide (synthesized by Biomatik)

target: T1, A1 protein (mouse, residues 1-152, P104K C113S, used as wild type) (mouse); assay: stopped-flow fluorescence kinetics + other: fluorescence dissociation kinetics with competitor; Kd calculated as the ratio koff/kon of the kinetic rate constants; 25 °C; 50 mM sodium phosphate, 0.05% (v/v) Tween 20, pH 7.0; conditions: not given

Binder | Kd [nM]
B1 | 735
B2 | 0.02
B3 | 0.047
B4 | 0.29
B5 | 0.022
B6 | 210
B7 | 7.1
B8 | 1.4

target: T1, A1 protein (mouse, residues 1-152, P104K C113S, used as wild type) (mouse); assay: fluorescence dissociation kinetics with competitor; dissociation; preformed complex of TAMRA-labelled peptide and partner protein mixed with excess unlabeled PUMA peptide as competitor; stopped-flow or Cary Eclipse spectrophotometer; 25 °C; 50 mM sodium phosphate, 0.05% (v/v) Tween 20, pH …; conditions: not given

Binder | koff [s⁻¹]
B1 | 1.23
B6 | 0.66
B7 | 0.0348
B8 | 0.0039

Target: T2, MCL-1 (mouse, residues 152-308)
Assay: fluorescence dissociation kinetics with competitor; dissociation; preformed complex of TAMRA-labelled peptide and partner protein mixed with excess unlabeled PUMA peptide as competitor; stopped-flow or Cary Eclipse spectrophotometer; 25 °C; 50 mM sodium phosphate, 0.05% (v/v) Tween 20, pH 7.0
Conditions: both partners purified
How it was run: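 The dissociation rate constant comes from competitor displacement of a preformed complex of TAMRA-labelled peptide and mouse MCL-1 (residues 152–308), mixed with various concentrations of unlabelled competitor peptide. Runs were at 25 °C in 50 mM sodium phosphate, 0.05% (v/v) Tween 20, pH 7.0, read on stopped-flow (kobs > 0.03 s^−1) or Cary Eclipse (kobs < 0.03 s^−1). Fluorescence changes were fit to single exponentials. With sufficient competitor excess, concentration-independent kobs values were averaged as koff.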

Binder | koff [s⁻¹]
B2 | 0.0036
B3 | 0.008
B4 | 0.014
B5 | 0.0025
B6 | 1.3

Target: T2, MCL-1 (mouse, residues 152-308)
Assay: stopped-flow fluorescence kinetics + other: fluorescence dissociation kinetics with competitor; Kd calculated as the ratio koff/kon of the kinetic rate constants; 25 °C; 50 mM sodium phosphate, 0.05% (v/v) Tween 20, pH 7.0
Conditions: both partners purified

Binder | Kd [nM]
B2 | 0.55
B3 | 1.6
B4 | 1.7
B5 | 0.3
B6 | 610

target: T1, A1 protein (mouse, residues 1-152, P104K C113S, used as wild type) (mouse); assay: stopped-flow fluorescence kinetics; association; TAMRA-labelled peptide with folded partner at least 10-fold higher (pseudo-first-order); kon from the gradient of kobs versus partner concentration; 25 °C; 50 mM sodium phosphate, 0.05% (v/v) Tween 20, pH 7.0; conditions: not given

Binder | kon [M⁻¹ s⁻¹]
B2 | 1.07e+07
B3 | 9.6e+06
B4 | 7e+06
B5 | 8.6e+06

target: T1, A1 protein (mouse, residues 1-152, P104K C113S, used as wild type) (mouse); assay: fluorescence dissociation kinetics with competitor; dissociation; preformed complex of TAMRA-labelled peptide and partner protein mixed with excess unlabeled PUMA peptide as competitor; stopped-flow or Cary Eclipse spectrophotometer; 25 °C; 50 mM sodium phosphate, 0.05% (v/v) Tween 20, pH …; conditions: not given; remark: another data set of the same source

Binder | koff [s⁻¹]
B2 | 0.000213
B3 | 0.000454
B4 | 0.002
B5 | 0.0002

target: T3, MCL-1 (mouse, residues 152-308) (mouse, UniProt P97287 152-308); assay: dissociation kinetics by competition (fluorescence); preformed complex of TAMRA peptide and partner protein mixed with various concentrations of unlabeled PUMA peptide as competitor; stopped-flow or spectrophotometer; 25 °C; 50 mM sodium phosphate, 0.05% (v/v) Tween 20, pH 7.0; conditions: both partners purified
T3 construct: MCL-1, mouse, residues 152-308, UniProt P97287; source: recombinantly produced, purified (protocol in the supplemental Experimental Procedures)

Binder | binding result
B9 | binds

Target: T2, MCL-1 (mouse, residues 152-308)
Assay: other fluorescence titration; equilibrium binding curve of TAMRA-labelled peptide, fluorescence (A.U.) against MCL-1 concentration; 50 mM sodium phosphate, 0.05% (v/v) Tween 20, pH 7.0
Conditions: both partners purified

Binder | Kd [nM]
B8 | 1.7 ± 0.2

Target: T2, MCL-1 (mouse, residues 152-308)
Assay: fluorescence polarisation; equilibrium binding by fluorescence anisotropy of the TAMRA-labelled peptide against partner protein concentration; anisotropy adjusted for the change in fluorescence intensity; 25 °C; 50 mM sodium phosphate, 0.05% (v/v) Tween 20, pH 7.0
Conditions: both partners purified

Binder | Kd [nM]
B6 | 1200

Target: T2, MCL-1 (mouse, residues 152-308)
Assay: stopped-flow fluorescence kinetics; association; TAMRA-labelled peptide with folded partner at least 10-fold higher (pseudo-first-order); kon from the gradient of kobs versus partner concentration; 25 °C; 50 mM sodium phosphate, 0.05% (v/v) Tween 20, pH 7.0
Conditions: both partners purified
How it was run: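 The association rate constant is the slope of observed rate versus partner concentration, from stopped-flow fluorescence of TAMRA-labelled peptide with mouse MCL-1 (residues 152–308). The partner was in at least 10-fold excess, in 50 mM sodium phosphate, 0.05% (v/v) Tween 20, pH 7.0, at 25 °C. Excitation was at 555 nm with emission above 570 nm, and each observed rate came from a single-exponential fit.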

Binder | kon [M⁻¹ s⁻¹]
B2 | 6.5e+06
B3 | 4.8e+06
B4 | 8.6e+06
B5 | 8.2e+06
B6 | 2.1e+06

target: T1, A1 protein (mouse, residues 1-152, P104K C113S, used as wild type) (mouse); assay: fluorescence polarisation; equilibrium binding by fluorescence anisotropy of the TAMRA-labelled peptide against partner protein concentration; anisotropy adjusted for the change in fluorescence intensity; 25 °C; 50 mM sodium phosphate, 0.05% (v/v) Tween 20, pH 7.0; conditions: not given

Binder | Kd [nM]
B1 | 710
B6 | 360
B7 | 5.65

target: T1, A1 protein (mouse, residues 1-152, P104K C113S, used as wild type) (mouse); assay: stopped-flow fluorescence kinetics; association; TAMRA-labelled peptide with folded partner at least 10-fold higher (pseudo-first-order); kon from the gradient of kobs versus partner concentration; 25 °C; 50 mM sodium phosphate, 0.05% (v/v) Tween 20, pH 7.0; conditions: not given; remark: another data set of the same source

Binder | kon [M⁻¹ s⁻¹]
B1 | 1.67e+06
B6 | 3.1e+06
B7 | 4.9e+06
B8 | 2.78e+06

From PMC6016464, “Folding and binding pathways of BH3-only proteins are encoded within their intrinsically disordered sequence, not templated by partner proteins” (The Journal of Biological Chemistry, 2018)
